Data published in US20260365755 (published 2026).

B1: Q-SBL-111 (antibody)
chain 1: not shown
chain 2: not shown
chain 3: EVQLVESGGGLVQPGGSLRLSCAASGYTFTNYGMNWVRQAPGKGLEWVGWINTYTGEPTYAADFKRRFTFSLDTSKSTAYLQMNSLRAEDTAVYYCAKYPHYYGSSHWYFDVWGQGTLVTVSSASTKGPSVFPLAPSSKSTSGGTAALGCLVKDYFPEPVTVSWNSGALTSGVHTFPAVLQSSGLYSLSSVVTVPSSSLGTQTYICNVNHKPSNTKVDKKVEPKSCDKTHTCPPCPAPELLGGPSVFLFPPKPKDTLMISRTPEVTCVVVDVSHEDPEVKFNWYVDGVEVHNAKTKPREEQYNSTYRVVSVLTVLHQDWLNGKEYKCKVSNKALPAPIEKTISKAKGQPREPQVCTLPPSRREMTKNQVSLWCLVKGFYPSDIAVEWESNGQPENNYKTTPPVLDSDGSFFLYSKLTVDKSRWQQGNVFSCSVMHEALHNHYTQKSLSLSPGK
chain 4: not shown
B2: Q-SBL-101 (antibody)
chain 1: not shown
chain 2: not shown
chain 3: EVQLVESGGGLVQPGGSLRLSCAASGYTFTNYGMNWVRQAPGKGLEWVGWINTYTGEPTYAADFKRRFTFSLDTSKSTAYLQMNSLRAEDTAVYYCAKYPHYYGSSHWYFDVWGQGTLVTVSSASTKGPSVFPLAPSSKSTSGGTAALGCLVKDYFPEPVTVSWNSGALTSGVHTFPAVLQSSGLYSLSSVVTVPSSSLGTQTYICNVNHKPSNTKVDKKVEPKSCDKTHTCPPCPAPELLGGPSVFLFPPKPKDTLMISRTPEVTCVVVDVSHEDPEVKFNWYVDGVEVHNAKTKPREEQYNSTYRVVSVLTVLHQDWLNGKEYKCKVSNKALPAPIEKTISKAKGQPREPQVCTLPPSRREMTKNQVSLWCLVKGFYPSDIAVEWESNGQPENNYKTTPPVLDSDGSFFLYSKLTVDKSRWQQGNVFSCSVMHEALHNHYTQKSLSLSPGK
chain 4: not shown
B3: Q-SBL-115 (antibody)
chain 1: not shown
chain 2: not shown
chain 3: EVQLVESGGGLVQPGGSLRLSCAASGYTFTNYGMNWVRQAPGKGLEWVGWINTYTGEPTYAADFKRRFTFSLDTSKSTAYLQMNSLRAEDTAVYYCAKYPHYYGSSHWYFDVWGQGTLVTVSSASTKGPSVFPLAPSSKSTSGGTAALGCLVKDYFPEPVTVSWNSGALTSGVHTFPAVLQSSGLYSLSSVVTVPSSSLGTQTYICNVNHKPSNTKVDKKVEPKSCDKTHTCPPCPAPELLGGPSVFLFPPKPKDTLMISRTPEVTCVVVDVSHEDPEVKFNWYVDGVEVHNAKTKPREEQYNSTYRVVSVLTVLHQDWLNGKEYKCKVSNKALPAPIEKTISKAKGQPREPQVCTLPPSRERMTKNQVSLWCLVKGFYPSDIAVEWESNGQPENNYKTTPPVLDSDGSFFLYSKLTVDKSRWQQGNVFSCSVMHEALHNHYTQKSLSLSPGK
chain 4: not shown
B4: Q-SBL-117 (antibody)
chain 1: not shown
chain 2: not shown
chain 3: EVQLVESGGGLVQPGGSLRLSCAASGYTFTNYGMNWVRQAPGKGLEWVGWINTYTGEPTYAADFKRRFTFSLDTSKSTAYLQMNSLRAEDTAVYYCAKYPHYYGSSHWYFDVWGQGTLVTVSSASTKGPSVFPLAPSSKSTSGGTAALGCLVKDYFPEPVTVSWNSGALTSGVHTFPAVLQSSGLYSLSSVVTVPSSSLGTQTYICNVNHKPSNTKVDKKVEPKSCDKTHTCPPCPAPELLGGPSVFLFPPKPKDTLMISRTPEVTCVVVDVSHEDPEVKFNWYVDGVEVHNAKTKPREEQYNSTYRVVSVLTVLHQDWLNGKEYKCKVSNKALPAPIEKTISKAKGQPREPQVCTLPPSRKEMTKNQVSLWCLVKGFYPSDIAVEWESNGQPENNYKTTPPVLDSDGSFFLYSKLTVDKSRWQQGNVFSCSVMHEALHNHYTQKSLSLSPGK
chain 4: not shown
B5: Q-SBL-136 (antibody)
chain 1: not shown
chain 2: not shown
chain 3: EVQLVESGGGLVQPGGSLRLSCAASGYTFTNYGMNWVRQAPGKGLEWVGWINTYTGEPTYAADFKRRFTFSLDTSKSTAYLQMNSLRAEDTAVYYCAKYPHYYGSSHWYFDVWGQGTLVTVSSASTKGPSVFPLAPSSKSTSGGTAALGCLVKDYFPEPVTVSWNSGALTSGVHTFPAVLQSSGLYSLSSVVTVPSSSLGTQTYICNVNHKPSNTKVDKKVEPKSCDKTHTCPPCPAPELLGGPSVFLFPPKPKDTLMISRTPEVTCVVVDVSHEDPEVKFNWYVDGVEVHNAKTKPREEQYNSTYRVVSVLTVLHQDWLNGKEYKCKVSNKALPAPIEKTISKAKGQPREPQVCTLPPSREEMTKNQVSLWCLVKGFYPSDIAVEWESNGQPENNYKTTPPVLDSDGSFFLYSTLTVDKSRWQQGNVFSCSVMHEALHNHYTQKSLSLSPGK
chain 4: not shown
B6: Q-SBL-105 (antibody)
chain 1: not shown
chain 2: not shown
chain 3: EVQLVESGGGLVQPGGSLRLSCAASGYTFTNYGMNWVRQAPGKGLEWVGWINTYTGEPTYAADFKRRFTFSLDTSKSTAYLQMNSLRAEDTAVYYCAKYPHYYGSSHWYFDVWGQGTLVTVSSASTKGPSVFPLAPSSKSTSGGTAALGCLVKDYFPEPVTVSWNSGALTSGVHTFPAVLQSSGLYSLSSVVTVPSSSLGTQTYICNVNHKPSNTKVDKKVEPKSCDKTHTCPPCPAPELLGGPSVFLFPPKPKDTLMISRTPEVTCVVVDVSHEDPEVKFNWYVDGVEVHNAKTKPREEQYNSTYRVVSVLTVLHQDWLNGKEYKCKVSNKALPAPIEKTISKAKGQPREPQVCTLPPSRRRMTKNQVSLWCLVKGFYPSDIAVEWESNGQPENNYKTTPPVLDSDGSFFLYSKLTVDKSRWQQGNVFSCSVMHEALHNHYTQKSLSLSPGK
chain 4: not shown
B7: Q-SBL-114 (antibody)
chain 1: not shown
chain 2: not shown
chain 3: EVQLVESGGGLVQPGGSLRLSCAASGYTFTNYGMNWVRQAPGKGLEWVGWINTYTGEPTYAADFKRRFTFSLDTSKSTAYLQMNSLRAEDTAVYYCAKYPHYYGSSHWYFDVWGQGTLVTVSSASTKGPSVFPLAPSSKSTSGGTAALGCLVKDYFPEPVTVSWNSGALTSGVHTFPAVLQSSGLYSLSSVVTVPSSSLGTQTYICNVNHKPSNTKVDKKVEPKSCDKTHTCPPCPAPELLGGPSVFLFPPKPKDTLMISRTPEVTCVVVDVSHEDPEVKFNWYVDGVEVHNAKTKPREEQYNSTYRVVSVLTVLHQDWLNGKEYKCKVSNKALPAPIEKTISKAKGQPREPQVCTLPPSREEMTKNQVSLWCLVKGFYPSDIAVEWESNGQPENNYKTTPPVLHSDGSFFLYSKLTVDKSRWQQGNVFSCSVMHEALHNHYTQKSLSLSPGK
chain 4: not shown
B8: Q-SBL-103 (antibody)
chain 1: not shown
chain 2: not shown
chain 3: EVQLVESGGGLVQPGGSLRLSCAASGYTFTNYGMNWVRQAPGKGLEWVGWINTYTGEPTYAADFKRRFTFSLDTSKSTAYLQMNSLRAEDTAVYYCAKYPHYYGSSHWYFDVWGQGTLVTVSSASTKGPSVFPLAPSSKSTSGGTAALGCLVKDYFPEPVTVSWNSGALTSGVHTFPAVLQSSGLYSLSSVVTVPSSSLGTQTYICNVNHKPSNTKVDKKVEPKSCDKTHTCPPCPAPELLGGPSVFLFPPKPKDTLMISRTPEVTCVVVDVSHEDPEVKFNWYVDGVEVHNAKTKPREEQYNSTYRVVSVLTVLHQDWLNGKEYKCKVSNKALPAPIEKTISKAKGQPREPQVCTLPPSRERMTKNQVSLWCLVKGFYPSDIAVEWESNGQPENNYKTTPPVLDSDGSFFLYSKLTVDKSRWQQGNVFSCSVMHEALHNHYTQKSLSLSPGK
chain 4: not shown
B9: Q-SBL-135 (antibody)
chain 1: not shown
chain 2: not shown
chain 3: EVQLVESGGGLVQPGGSLRLSCAASGYTFTNYGMNWVRQAPGKGLEWVGWINTYTGEPTYAADFKRRFTFSLDTSKSTAYLQMNSLRAEDTAVYYCAKYPHYYGSSHWYFDVWGQGTLVTVSSASTKGPSVFPLAPSSKSTSGGTAALGCLVKDYFPEPVTVSWNSGALTSGVHTFPAVLQSSGLYSLSSVVTVPSSSLGTQTYICNVNHKPSNTKVDKKVEPKSCDKTHTCPPCPAPELLGGPSVFLFPPKPKDTLMISRTPEVTCVVVDVSHEDPEVKFNWYVDGVEVHNAKTKPREEQYNSTYRVVSVLTVLHQDWLNGKEYKCKVSNKALPAPIEKTISKAKGQPREPQVCTLPPSREEMTKNQVSLWCLVKGFYPSDIAVEWESNGQPENNYKTTPPVLDSDGSFFLYSVLTVDKSRWQQGNVFSCSVMHEALHNHYTQKSLSLSPGK
chain 4: not shown
B10: Q-SBL-104 (antibody)
chain 1: not shown
chain 2: not shown
chain 3: EVQLVESGGGLVQPGGSLRLSCAASGYTFTNYGMNWVRQAPGKGLEWVGWINTYTGEPTYAADFKRRFTFSLDTSKSTAYLQMNSLRAEDTAVYYCAKYPHYYGSSHWYFDVWGQGTLVTVSSASTKGPSVFPLAPSSKSTSGGTAALGCLVKDYFPEPVTVSWNSGALTSGVHTFPAVLQSSGLYSLSSVVTVPSSSLGTQTYICNVNHKPSNTKVDKKVEPKSCDKTHTCPPCPAPELLGGPSVFLFPPKPKDTLMISRTPEVTCVVVDVSHEDPEVKFNWYVDGVEVHNAKTKPREEQYNSTYRVVSVLTVLHQDWLNGKEYKCKVSNKALPAPIEKTISKAKGQPREPQVCTLPPSRREMTKNQVSLWCLVKGFYPSDIAVEWESNGQPENNYKTTPPVLHSDGSFFLYSKLTVDKSRWQQGNVFSCSVMHEALHNHYTQKSLSLSPGK
chain 4: not shown
B11: Q-SBL-106 (antibody)
chain 1: not shown
chain 2: not shown
chain 3: EVQLVESGGGLVQPGGSLRLSCAASGYTFTNYGMNWVRQAPGKGLEWVGWINTYTGEPTYAADFKRRFTFSLDTSKSTAYLQMNSLRAEDTAVYYCAKYPHYYGSSHWYFDVWGQGTLVTVSSASTKGPSVFPLAPSSKSTSGGTAALGCLVKDYFPEPVTVSWNSGALTSGVHTFPAVLQSSGLYSLSSVVTVPSSSLGTQTYICNVNHKPSNTKVDKKVEPKSCDKTHTCPPCPAPELLGGPSVFLFPPKPKDTLMISRTPEVTCVVVDVSHEDPEVKFNWYVDGVEVHNAKTKPREEQYNSTYRVVSVLTVLHQDWLNGKEYKCKVSNKALPAPIEKTISKAKGQPREPQVCTLPPSRERMTKNQVSLWCLVKGFYPSDIAVEWESNGQPENNYKTTPPVLHSDGSFFLYSKLTVDKSRWQQGNVFSCSVMHEALHNHYTQKSLSLSPGK
chain 4: not shown

Key:
Experiment in all cases: BLI
[1] = target: T1, FcγRIIa (human, UniProt P12318)
T1 chain: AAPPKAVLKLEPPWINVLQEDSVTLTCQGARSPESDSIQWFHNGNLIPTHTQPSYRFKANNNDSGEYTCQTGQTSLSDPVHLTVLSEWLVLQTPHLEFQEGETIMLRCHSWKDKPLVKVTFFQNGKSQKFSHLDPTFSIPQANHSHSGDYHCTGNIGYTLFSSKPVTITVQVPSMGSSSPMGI

[2] = target: FcRn (human, UniProt P55899)
[3] = target: FcγRIIIa (human, UniProt P08637)
[4] = target: C1q (human, UniProt P02745)
Sequence of C1q (P02745 23-245, chain 1 of 3): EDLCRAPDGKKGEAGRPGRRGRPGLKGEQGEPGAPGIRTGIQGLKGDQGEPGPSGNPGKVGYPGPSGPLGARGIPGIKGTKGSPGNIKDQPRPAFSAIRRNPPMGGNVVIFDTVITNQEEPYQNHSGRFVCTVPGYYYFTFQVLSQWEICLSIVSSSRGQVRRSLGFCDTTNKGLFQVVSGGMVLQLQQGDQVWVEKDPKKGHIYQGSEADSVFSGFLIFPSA
Sequence of C1q (P02746 28-253, chain 2 of 3, further chain): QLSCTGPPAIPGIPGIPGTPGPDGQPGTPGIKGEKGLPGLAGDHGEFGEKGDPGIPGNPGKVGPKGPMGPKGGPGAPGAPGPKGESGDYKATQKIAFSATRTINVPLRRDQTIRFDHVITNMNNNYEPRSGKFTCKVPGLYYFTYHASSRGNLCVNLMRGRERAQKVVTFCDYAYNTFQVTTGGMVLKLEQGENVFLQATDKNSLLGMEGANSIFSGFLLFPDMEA
Sequence of C1q (P02747 29-245, chain 3 of 3, further chain): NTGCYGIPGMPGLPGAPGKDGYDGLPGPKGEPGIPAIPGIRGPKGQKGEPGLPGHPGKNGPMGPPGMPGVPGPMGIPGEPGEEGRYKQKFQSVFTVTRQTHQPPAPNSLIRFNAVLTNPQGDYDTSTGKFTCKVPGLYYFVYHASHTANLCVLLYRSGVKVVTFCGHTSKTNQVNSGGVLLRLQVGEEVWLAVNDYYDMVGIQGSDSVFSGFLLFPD

Sequence of FcγRIIIa (P08637 17-208): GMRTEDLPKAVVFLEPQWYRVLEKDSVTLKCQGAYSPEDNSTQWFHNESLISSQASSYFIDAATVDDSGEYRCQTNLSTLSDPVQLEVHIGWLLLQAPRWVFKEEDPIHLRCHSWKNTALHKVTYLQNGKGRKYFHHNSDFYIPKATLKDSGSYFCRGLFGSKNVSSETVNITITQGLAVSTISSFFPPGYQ
Sequence of FcRn (P55899 24-297, chain 1 of 2): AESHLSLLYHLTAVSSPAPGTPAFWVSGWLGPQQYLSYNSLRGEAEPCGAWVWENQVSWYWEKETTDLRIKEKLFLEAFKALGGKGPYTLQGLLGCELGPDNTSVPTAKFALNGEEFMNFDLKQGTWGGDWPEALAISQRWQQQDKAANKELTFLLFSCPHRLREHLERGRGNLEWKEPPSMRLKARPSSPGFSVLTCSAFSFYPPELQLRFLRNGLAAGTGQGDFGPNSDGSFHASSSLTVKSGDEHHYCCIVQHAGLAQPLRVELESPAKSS
Sequence of FcRn (chain, as listed by the source, chain 2 of 2): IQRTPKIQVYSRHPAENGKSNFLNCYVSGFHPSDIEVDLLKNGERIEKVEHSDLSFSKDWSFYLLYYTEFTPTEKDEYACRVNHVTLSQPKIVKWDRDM

Row | Binder | Kd [1] [nM] | Kd [2] [nM] | Kd [3] [nM] | Kd [4] [nM]
1 | B1 | 2040 | 690 | 490 | 30
2 | B2 | 2460 | 730 | 500 | 36
3 | B3 | 1970 | 690 | 290 | 18
4 | B4 | 2550 |  | 360 | 40
5 | B5 | 1970 | 620 | 230 | 
6 | B6 | 1910 | 710 | 430 | 
7 | B7 | 1860 |  | 230 | 18
8 | B8 | 1130 |  | 220 | 40
9 | B9 | 1380 | 650 | 300 | 
10 | B10 | 1870 | 680 |  | 
11 | B11 |  | 680 |  | 
